Experimental data as given in patent US20220000762A1, “COMPOSITIONS FOR TREATING OXIDATIVE STRESS-ASSOCIATED SKIN DISEASES AND SKIN AGEING AND DIAGNOSIS OF OXIDATIVE STRESS-ASSOCIATED SKIN DISEASES” (priority 2019, published 2022).

Columns and labels:
[1] = Deoxyribose (TBA-MDA) assay; format: biochemical; conditions: 2 mg/ml RoxP, 37° C., 1 h
Method: Deoxyribose assay is a well-established method to measure generation of hydroxyl radicals in biological systems and for evaluating the ability of antioxidants to reduce .OH radical generation. Such assays are described for example in Gutteridge & Halliwell (Biochem J. 1988, vol. 253(3), 932-933) and references therein. In particular, deoxyribose incubated with H2O2 and Fe2^+ (or Fe3^+ plus a reductant) is degraded into products that can react to form thiobarbituric acid-malondialdehyde (classic TBA-MDA assay) chromogen. This reaction is driven by —OH radicals. A reduction in prevalence of .OH radicals will result in fewer formed complexes and lower absorbance.
A reaction mixture containing 5 mM 2-deoxyribose, 100 μM FeCl3, 100 μM EDTA, 1 mM H2O2, and 7.6 μg/ml ascorbic acid in buffer A (20 mM KH2PO4—KOH, pH 7.4), including or not 2 mg/ml RoxP, in triplicate, was incubated at 37° C. for 1 h (total volume 1 ml). After incubation, 1% w/v TBA (thiobarbituric acid) in 50 mM NaOH, and 2-8% v/v TCA (trichloroacetic acid) was added, followed by incubation at 95° C. for 15 minutes, and reading of absorbance at 532 nm.

[2] = Lipid hydroperoxide assay in UV irradiated and non-irradiated plasma; format: biochemical; conditions: 300 μg RoxP in 500 μl blood, plasma both irradiated (UVA/UVB) and non-irradiated
Method: Hydroperoxides react with Fe^2+ ions to produce Fe^3+ ions which are detected using thiocyanate ion as chromogen. Lower abundance of Fe^3+ ions results in lowered absorbance, indicating lower level of lipid hydroperoxides in irradiated plasma.
Blood was collected in EDTA tubes. Samples containing 500 μl blood+150 μl RoxP (300 μg RoxP), or 500 μl blood+150 μl PBS, were subjected to irradiation:
UVA—irradiation 3×5000 μJ/cm^2; tubes were rotated between irradiation steps; or
Controls having composition identical to the samples, but not irradiated, were included in the experiment.
The blood samples were centrifuged at 1000×g, plasma was collected and frozen at −80° C.
Lipid hydroperoxides were quantified using lipid hydroperoxide assay kit (Cayman Chemical, item no. Item No. 705002).

Ferrozine assay = format: biochemical; conditions: incubation 17 hours
Method: The reagents used in the ferrozine assay included 100 μl of 50 mM iron ammonium dodecahydrate, 100 μl 2 mM ferrozine in H2O, and RoxP (50 μl) resulting in various RoxP concentrations indicated in the graph, diluted from a stock solution of 2 mg/ml RoxP in PBS. Incubation was Incubation 17 hours.

[3] = Singlet Oxygen Sensor Green assay with UV-exposed porphyrins; format: biochemical; conditions: 1 μM Coproporphyrin III or Protoporphyrin IX, 10 min UV lamp, varying amounts of RoxP
Method: The Singlet Oxygen Sensor Green dye was dissolved in Methanol and added in PBS buffer to reach a final concentration of 0.4 μM. This solution was distributed in a clear 96 well plate. To the wells 1 μM Coproporphyrin III, or 1 μM Protoporphyrin IX was added. Then varying amounts of RoxP were added. Each condition was set up as 4 replicas. Two of the replicas were covered by aluminium foil during the exposure, while two wells were exposed for 10 min to a UV lamp. After exposure, the fluorescence of the Singlet Oxygen Sensor Green dye was read out indicating the amount of singlet oxygen generated.

healthy subjects = experiment: UVA/UVB-irradiation study in human subjects: skin color a* (erythema) by Chromameter; format: in vivo; conditions: topical, 1.25 MED UV, n=7
Method: The objective of this study was to assess the UV-protection potential of three compositions containing RoxP in 7 healthy subjects by measuring the antioxidative effect and skin erythema. Oxidative stress was induced by exposition to UVA- and UVB-light to the skin on the upper back. The anti-oxidative activity of the test products was evaluated by measurement of sebum lipid oxidization levels (concentration of squalene monohydroperoxide) of swab-samples from the skin surface. The potential was assessed after two applications of RoxP in comparison to water, an untreated control and one hydrophilic standard antioxidant (H1) after induction of a light sunburn (1.25 MED). […] Additionally, the UV-protection potential of the products was evaluated by measuring the produced erythema (Chromameter). […]
Erythema was evaluated (Chromameter) at t1=baseline before irradiation, t2=30 to 50 minutes after irradiation, and t3=16 to 24 hours after irradiation. Squalene monohydroperoxide (SQOOH) was quantified at 25 to 45 minutes after irradiation. […]
On Day 2, subjects returned to the Study Site 20±4 hours after irradiation. […] The reading of the MED was performed and the irradiation time for 1 MED was determined. The correct dose for the irradiation of test areas was calculated by multiplying the irradiation dose of 1 MED with the factor for irradiation (1.25). […]

B1: RoxP: radical oxygenase of Propionibacterium acnes, secreted antioxidant protein of C. acnes; SEQ ID NO: 1 for strain KPA171202 (protein)
chain: MFVQIAASLAAASSIALGIPGAATPIDESQLPVGPQVSVTDSAQHTGPFAASSPLTITVKPGAPCVRADGYQESMVTRVLDDKGHQVWTGTFDESKLIGGTGLGTATFHVGSPAAAFNFHGSERTTYRTLSYCAYPHYVNGTRERLSQVSVKTFMVDPALN
modifications: Cutibacterium acnes
absorbance at 532 nm (generation of .OH radicals) [1]: reduced | lipid hydroperoxide levels [2]: reduced | reduction of Fe^3+ to Fe^2+ (Ferrozine assay): confirmed reduction of Fe^3+ to Fe^2+ | generation of radicals formed through the porphyrins (singlet oxygen) [3]: efficiently inhibited | increase of skin color a* (median) (healthy subjects; during 24 hours, water control 6 units): 3.4 units | erythema 30-50 min after UV irradiation (healthy subjects): less erythrema than the water control
